Measured values published in PMC6249979.

Molecular target: Flag-actin-WT, P60709
Assay: co-immunoprecipitation with anti-Flag magnetic beads, competition with purified MRTF-A (2-261), immunoblot quantification
Details: chain shown with the change; NIH 3T3 cells co-expressing Flag-actin-WT and myc-JMY constructs, serum-starved for 24 h post transfection; purified MRTF-A (2-261) added to the lysates prior …; parent: est. 0.97; read off a plot

B1: myc-JMY-f.l., Q9QXM1 R961E (protein)
chain: MSFALEETLESDWVAVRPHVFDEREKHKFVFIVAWNEIEGKFAITCHNRTAQRQRSGSREQAGTPASDGSRGPGSPAARGRSEAAASATAALRSPGPRKSQAWAEGGSPRSARSLKGDPPRGPAGRGPESPLRSPARAKASPLRRSAESRDAIASATPVPPAPPVPPVSSVRVVSASGAVSEEIEVLEMVREDEAPQPLPDSEQPPSAAELESSAEECSWAGLFSFQDLRAVHQQLCSVNSQLEPCLPVFPEEPSGMWTVLFGGAPEMTEQEIDALCYQLQVYLGHGLDTCGWKILSQVLFTETDDPEEYYESLSELRQKGYEEVLQRARRRIQELLDKHKTIESMVELLDLYQMEDEAYSSLAEATTELYQYLLQPFRDMRELAMLRRQQIKISMENDYLGPRRIESLQKEDADWQRKAHMAVLSIQDLTVKYFEITAKAQKAVYDRMRADQKKFGKASWAAAAERMEKLQYAVSKETLQMMRAKEICLEQKKHALKEEMQSLQGGTEAIARLDQLESDYYDLQLQLYEVQFEILKCEELLLTAQLESIKRLISEKRDEVVYYDTYESMEAMLEKEEMAASVHAQREELQKLQQKARQLEARRGRVSAKKAYLRNKKEICIAKHHEKFQQRFQSEDEYRAHHTIQIKRDKLHDEEERKSAWVSQERQRTLDRLRTFKQRYPGQVILKSTRLRVAHSRRKSTASPVPCEEQCHSLPTVLQGQEKTEVGGGGSQLGPSQTAEPQSLVQLEDTSSEQLESTSLPPRAVVSSELPPPQSAPLLTSIDPKPCSVTIDPLPPPLPPTPPPPPPPPPPPPPPLPVAKDNGASTTAETLEKDALRTEGNERSIPKSASAPAAHLFDSSQLVSARKKLRKTVEGLQRRRVSSPMDEVLASLKRGSFHLKKVEQRTLPPFPDEDDSNNILAQIRKGVKLKKVQKEVLRESFTLLPDTDPLTRSIHEALREIKEASPESEDEEEALPCTDWEN
other: relative amount of MRTF-A bound to Flag-actin (competition by co-expressed JMY): 0.59
